Results taken from patent US20020155563A1 (Bristol-Myers Squibb, published 2002).

Target: T1, Grb2 (adapter protein, from Jurkat T cell lysates) (human, UniProt P62993 1-217)
T1 construct: also called adapter protein Grb2
Assay: pull-down from Jurkat lysates on Talon beads, anti-Grb2 immunoblot
Procedure: In this Example, experiments were performed to determine if human MIST provided by the present invention associated with signaling proteins critical for cell activation. For this purpose, cell lysates from unstimulated Jurkat T cells, or TCR/CD3-activated Jurkat T cells, were prepared and precipitated with Talon resin beads (Clontech, Palo Alto, Calif.) preloaded with equivalent amounts (5 μg total) of His-MIST fusion proteins. The phosphotyrosine content of precipitated proteins was analyzed by SDS-PAGE followed by Western blotting with an anti-phosphotyrosine specific antibody (4G10, UBI, Hauppague, N.Y.).
More specifically, Jurkat T cells (10⁷/lane) were unstimulated, or were stimulated with monoclonal antibody (MoAb) to the T-cell receptor TCR/CD3 (G19-4-BMS) for 5 minutes at 37° C., and then lysed in 1% NP40-containing lysis buffer and incubated with Talon beads preloaded with equivalent amounts (50 μl of slurry resin) of the indicated His-MIST fusion proteins. Reactants and immunoprecipitates were subjected to SDS-PAGE on 4-20% gradient gels. […] Blot stripping was performed and the membrane was subsequently re-probed with anti-Grb2 MoAb (Santa Cruz Biotechnology, Inc., Santa Cruz, Calif.), anti-Cbl MoAb (Santa Cruz Biotechnology, Inc., Santa Cruz, Calif.), or anti-Vav1 MoAb (Upstate Biotechnology, Inc., Lake Placid, N.Y.).

binding result: no binding
B1: His-MIST-SH2 (poly-histidine tagged MIST SH2 domain, residues 320-443) (other, not shown: small tags and cut ends)
chain: QHNEWYIGEYSRQAVEEAFMKENKDGSFLVRDCSTKSKEEPYVLAVFYENKVYNVKIRFLERNQQFALGTGLRGDEKFDSVEDIIEHYKNFPIILIDGKDKTGVHRKQCHLTQPLPLTRHLLPL
notes: Recombinant, Sf9 cells; also called His-MIST-SH2 fusion protein
